Data taken from article PMC8790569.

Legend:
[1] = test system: T1, AnLexA (Anabaena sp. strain PCC 7120), ORF:0695c96d; assay: EMSA; conditions: 20 mM Tris-Cl pH 7.5, 1 mM EDTA, 20 ul, RT 30 min; 10% native PAGE in 0.5x TBE
T1 sequence: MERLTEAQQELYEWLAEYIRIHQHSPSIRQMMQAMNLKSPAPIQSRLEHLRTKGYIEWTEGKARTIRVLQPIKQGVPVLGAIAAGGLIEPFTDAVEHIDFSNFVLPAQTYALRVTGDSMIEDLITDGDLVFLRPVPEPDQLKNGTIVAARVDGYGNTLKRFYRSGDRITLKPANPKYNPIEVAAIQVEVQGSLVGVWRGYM

[2] = test system: T2, AzuR (Anabaena sp. strain PCC 7120), ORF:06435f25; assay: EMSA; conditions: 20 mM Tris-Cl pH 7.5, 1 mM EDTA, 20 ul, RT 30 min; 10% native PAGE in 0.5x TBE
T2 sequence: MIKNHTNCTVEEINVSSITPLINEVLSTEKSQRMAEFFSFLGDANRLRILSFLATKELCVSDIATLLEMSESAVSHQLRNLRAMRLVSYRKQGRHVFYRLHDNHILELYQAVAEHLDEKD

[3] = molecular target: AzuR (Alr0831) (Anabaena sp. strain PCC 7120); assay: SEC; Superdex 75, 20 mM Tris, 100 mM NaCl, pH 7.5, 25 °C, 0.5 ml/min; calibrated with gel filtration markers
[4] = molecular target: AzuR (Alr0831) (Anabaena sp. strain PCC 7120); assay: cross-linking; purified AzuR (5 ug) with 10 mM glutaraldehyde, room temperature, 10-15 min, 10 mM Tris pH 7.5; cracking buffer without DTT; 15% SDS-PAGE, Coomassie

stoichiometry N [3]	stoichiometry N [4]	Substance	binding [1]	binding [2]
		AAACGTATTATATAACCTAATTGTTACATTTTATTAAGCAATACTTGAACATCTGTTCAGGTATTGTAGTGTAATCACAAGTGAAAACGGAGGAAATAAT (double strand) [PnmtA (100 bp upstream of nmtA ORF)]	no binding	binds
2	2	AzuR (Alr0831) (natural protein)		
